Target: T1, hVEGF-A (8-109) (human, UniProt P15692 214-315)
T1 sequence (looked up): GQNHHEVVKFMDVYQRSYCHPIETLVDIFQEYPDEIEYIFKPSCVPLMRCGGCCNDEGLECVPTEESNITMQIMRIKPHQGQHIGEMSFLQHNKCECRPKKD
Assay: spot phage ELISA

Binder	binding result
GCNIMLPFWGCKQDSDCLAGCVCQYYQSCGSE (designed binder) [9.54-4]	binds
GCNIMLPFWGCKQDSDCLAGCVCQYYQSCGTD (designed binder) [9.54-1]	binds
GCNIMLPFWGCKQDSDCLAGCVCQYYQSCGMD (designed binder) [9.54-2]	binds
GCNIMLPFWGCKQDFDCLAGCVCQYYQSCGLE (designed binder) [9.54-5]	binds
GCNIMLPFWGCKQDFDCLAGCVCQYYQSCGQY (designed binder) [9.54-6]	binds
GCNIMLPFWGCKQDFDCLAGCVCQYYQSCGQH (designed binder) [9.54-9]	binds
GCNIMLPFWGCKQDSDCLVGCICQYYQSCGSI (designed binder) [9.54-10]	binds
GCNIMLPFWGCKQDSDCLAGCICQYYQSCGQN (designed binder) [9.54-12]	binds
GCNIMLPFWGCKQDFDCLAGCVCQYYQSCGRP (designed binder) [9.54-13]	binds
GCNIMLPFWGCKQDSDCLAGCVCQYYQSCGPE (designed binder) [9.54-15]	binds
GCNIMLPFWGCKQDSDCLAGCVCQYYQSCGEE (designed binder) [9.54-17]	binds
GCNIMLPFWGCKQDSDCLAGCVCQYYQSCGDD (designed binder) [9.54-19]	binds
GCNIMLPFWGCKQDSDCLAGCVCQYYQSCGSD (designed binder) [9.54-21]	binds
GCNIMLPFWGCKQDSDCLAGCVCQYYQSCGEN (designed binder) [9.54-24]	binds
GCNIMLPFWGCKQDSDCLAGCVCQYYQSCGPH (designed binder) [9.54-27]	binds
GCNIMLPFWGCKQDFDCLAGCVCQYYQSCGGR (designed binder) [9.54-32]	binds
GCNIMLPFWGCKQDFDCLAGCVCQYYQSCGDT (designed binder) [9.54-34]	binds
GCNIMLPFWGCKQDFDCLAGCICQYYQSCGGE (designed binder) [9.54-39]	binds
GCNIMLPFWGCKQDSDCLAGCVCQYYQSCGTN (designed binder) [9.54-42]	binds
GCNIMLPFWGCKQDSDCLAGCVCQYYQSCGDG (designed binder) [9.54-43]	binds
GCNIMLPFWGCGRDFECLAGCVCQYYQSCGGS (designed binder) [9.54.90-2x63]	binds
GCNIMLPFWGCGRDFECLAGCVCQYYQSCGIA (designed binder) [9.54.90-2x2]	binds
GCNIMLPFWGCGRDFECLAGCVCQYYQSCGFH (designed binder) [9.54.90-2x28]	binds
GCNIMLPFWGCGRDFECLAGCVCQYYQSCGTR (designed binder) [9.54.90-2x36]	binds

From patent US20200325187A1 (Genentech, published 2020)
